A short description of this series: label from the status in PepcDB records.
Consider “MNPTLSAAVTAPSAGTQDAEAEIRDLAQSLTLEQQVQLLTGADVWSTHAIPEIGLSRVVMSDGPAGVRGEDFDERHDSVSLPSSSALSATWSVETARNYGQVLGQEARRKGVHAVLGPTINLHRSPLGGRHFECMSEDPRLTATMAAGYVAGVQSMGVGATPKHYLANEAETERFTADSVVDERPLRELYLAAFEDAITEARAWLVMSSYNSINGTTASENKLLETPLSTEWGFDGVVVSDWTGVRSIDAANAHQDLEMPGPVGHWGPKLLAAVNEGRVSREAILEKVTRILRLAARVGSLEGFEPAVTHLPTELNGAAVAREVAVRGAVLVRNKGLLPLDAKALGSVAVIGHNADEARTQGGGSATVMPKYTVSPLEGLRKALPEGVKVTYARGAKVAEGIQAFPRTSLHNPVSNVPGIRVTFLAEDGTEISGEDRLASHLIWFGIGIPDGAASIRMEADWTAETAGVHHLGVGTVGRIRFVLDGTEVFNSELEDDTEVLGAALFDPPKTVHAIDTTAGQSIRIEAEYQLPKEQVIPFTAILLGEETVVAEPQAEIDAAVEAARASDVAVVVVGTNAAIESEGFDRKDLDLPGYQNQLVKAVAAANPRTVVVVNSGSPVLMPWLDTVDAVLLGWFGGQEFGSAVADILLGVEEPGGRLPTTWPSALDDVPVLNTTPTDGKVVYSEGIHIGYRAWLKQQAEGGAAPALPFGFGLGYTTFEFGKAHAPQAVTAGKDLVVHVPVKNTGTRTGREVVQVYVERTESAVERPVRWLAGYAGAHLAPAGTESVEIRIPAKAFAHYDGGWQFEQGTFRLLVGRHAADDFQSLDIELR”, for which the protein production entry was “failed”.

Regarding “MEKILDNIDKSMNIIISLFTIYNLIRGFWLNKNKKQLEKQREDLQKKLHQQNISNNNNISNSFNTTIHNETNIKNEIIDINQDLKNTLKSRNTSRNIAYIFTIFLFVLSFILYVIHYFKEQFKGYTIADFINSFIPSFEKLTDILTISYKSAIIVLLIINLIIAVLVILISMLKLKLKWRVAVSSLLYGILNYYVLISASSIDSKDIHYSIQEPKLSFIISFLYLMVGFITAFFSNYILYSYLFNSEFEDELFNQTIKRFFIWLALTVLFAFLSFINYHNGLQITLNFIKNLLNLI”, the protein production result was “failed”. The result for “MHLKEILAQFSFFTAIPVKSSASLEEIAESSYISPIIVGISLGLIESVAYLILYRILGELTGIVLLGIIELLRGFNHLDGLLDLGDALMIRGNREKKIKALKDVEVGSGGIGLLLVYLSIQIVALLKLDFSLYTIFYLISSNVLSMSLSLYILSTISPIPESNLGRIFHDKLKGKSTILLLELIPFISLYNVIVFIIFYMIMYKICGSLGGSSGDIAGASITLSFPLFLITDEITNLNYSLLSILCYLFSHLH” reads “failed”; that for “MAAPSVPTPLYGHVGRGAFSDVYEPAEDTFLLLDALEAAAAELAGVELCLEVGAGSGVVSAFLASMIGPQALYMCTDINPKAAACTLETARCNRVHLQPVITDLVQGLLPRLKGKVDLLVFNPPYVVTPPEEVGSHGIEAAWAGGRNGREVMDRFFPLASQLLSPRGLFYLVTIKENNPVLPRSYGNAANVPELGSGQLGENLLAFKSNIGGLSKGKLYH”, “failed”.

“MKLSQQSLSIIESAIQKAVGKYVCNCEQTVVTDIHLQPDQTSGQLNIYNDDDEELANVMVEEWATYDGDDFLENIEPGLRSILCRMKDAGDFDKVTILKPYSFVLVDEDKETVTELLLVDDDTMLVNDELLKGLDKELDDFLKELLEK”: the protein production entry is on record as “failed”. The result for “MIDFLDVQKETPRIRIAIDRVGVKNIKFPLKIHDDFAFLTLNLFVDVPADRKGADMSRAVESIQKVINAGSYGERIGDIGIAICDEALSRFNYSEKAQCEVNIQYYRRSGERYLEYRMYVETAKDRKQIMKNEIGISYVTMTACPCAMETTRALISMDNPDISDAISAIPTITHNQRNVTKLTVDNRSKMITVWDLADVMERVQGKPLDSLLKRVEEGRLVYSAHRNPKFVEDVVREIAYEAARVLGVPDEATIKVSSESDESIHPHNAYAEIDTTAGELRKLHLH” reads “not failed”; that for “MSTPDNRSVNFFSLFRRGQHYAKTWPMEKRLAPVFVENRVIRMTRYAIRFMPPVAVFTLCWQIALGGQLGPAVATALFALSLPMQGLWWLGKRSVTPLPPSILNWFYEVRGKLQEAGQALAPVEGKPDYQALADTLKRAFKQLDKTFLDDL”, “not failed”. The result for “MLNEEQNSLEEKGGENKNEKETPLKGIHSKIPSLKQALEQTISKIKSSKEFFKQILHNKKKLYIALGALLLLIVLIVALSLLLGHKKENKQTSLQTNTIATNNETPNNTNNANNTEAERQIENLDLSDLIGKDSLKRNDENQVDAIMKKASLLYEQGQKDEALHLFDKAASFSQGIASHNLGVIKFKEKDFNGALDLFDSSIASKENASVSAIDALVSAYHLQDEDLYYHYLKIARDTLYKDYKKSFYSYAYALKSYYAGEYFEALSPLMHPNSNAFLKPNTRLASKLFLMFKDETNAYEQLQKSANAQDELALGLLQARLGHYKQALEHLQHYLHNYPKDLNALMALELVSLKKGDTLKASEALKLASHTKEDTLLANSFYPIKPTINPVFLDKERAKERFWNTQYFEGKRDFIYRLLFYYAPFKVLDSKETLGVIEEGLFLLDSDAQKDLEGASLAFKRGRLMAIADKNALQGLKALENKRLKKALSFFDLSLKNSPNNALLHYNTGLIYAQLENYHKAYFHFLRAFHLNSADYLSAVFAILASHFTHEDTTEFLREITENFYSQDFSSPTQKALLSSLIAYLNYRTNWDMDWLKNAPKKLPFYYALEAAFAKESKDKKLMVQSFGNLKKMLPKDLISNIFYEIVSYYDASIRHTLSIYTLLDSHKISWDQTMQGPILGRHFYTYMGFMVNDLDHQERLLEQKIASLEEGEAPNDWLENLALVSLFQGQYEKASALYQNLISGLKDNETHLKILAGLTYIAQNNYDSAALWLELGKLDDPNNENIRYALGLLYQRKGDLKSALNHFLAIKTSDFSSPYFDFEIDANLLKERLDQEKEGEFLE” reads “failed”; that for “MNQVEMTEFPVGKPQEALYGVASTPDGALWFTLAKGNAIGRLSPDGAVSRFPLPHTDGQPTTITCGPDGRPWFTLSSANAIGRLAPDGALRMFELPRPASRPFGIAGGHDGCLWFAEMAGDRIGRITIDGDIEEYDLPVKGGYPSCMAAGRDGLMWFTLNQAGAVGSISATAAPRIFPLGAADAAPVGIASDAQGALWIAQAGNGAIVRFDAGGRITEFPLHSRAARPHAIAADAAGNLWFTEWGANRIGRISEAGDLAGYELAAPGSEPHGIAIDPHGCVWAALETGRLVRLQASPRDLEHHHHHH”, “not failed”; that for “MACGEFSLIARYFDRVRSSRLDVELGIGDDCALLNIPEKQTLAISTDTLVAGNHFLPDIDPADLAYKALAVNLSDLAAMGADPAWLTLALTLPDVDEAWLESFSDSLFDLLNYYDMQLIGGDTTRGPLSMTLGIHGFVPMGRALTRSGAKPGDWIYVTGTPGDSAAGLAILQNRLQVADAKDADYLIKRHLRPSPRILQGQALRDLANSAIDLSDGLISDLGHIVKASDCGARIDLALLPFSDALSRHVVPEQALRWALSGGEDYELCFTVPELNRGALDVALGHLGVPFTCIGQMTADIEGLCFIRDGEPVTLDWKGYDHFATP”, “not failed”.

“MSQTSLEPLIISIIKLQILQLWLKLIAVGWNLGSNDDELYTELWKACAGPLVEVPRYGERVFYFPQGHMEQLVASTNQGVVDQEIPVFNLPPKILCRVLSVTLKAEHETDEVYAQITLQPEEDQSEPTSLDPPLVEPAKPTVDSFVKILTASDTSTHGGFSVLRKHATECLPSLDMTQPTPTQELVARDLHGYEWRFKHIFRGQPRRHLLTTGWSTFVTSKRLVAGDAFVFLRGETGDLRVGVRRLAKQQSTMPASVISSQSMRLGVLATASHAVTTTTIFVVFYKPRISQFIISVNKYMMAMKNGFSLGMRYRMRFEGEESPERIFTGTIIGSGDLSSQWPASKWRSLQIQWDEPSSIQRPNKVSPWEIEPFSPSALTPTPTQQQSKSKRSRPISEITGSPVASSFLSSFSQSHESNPSVKLLFQDPATERNSNKSVFSSGLQCKITEAPVTSSCRLFGFDLTSKPASATIPHDKQLISVDSNISDSTTKCQDPNSSNSPKEQKQQTSTRSRIKVQMQGTAVGRAVDLTLLRSYDELIKELEKMFEIEGELSPKDKWAIVFTDDEGDRMLVGDDPWNEFCKMAKKLFIYPSDEVKKMRSKSLLGDKGTIVNLESDQRTVHV”: the protein production entry is given as “failed”. In the case of “MLFSSASFVPIVRRMSRPTILPAYILATLPLVMALLATAVSIGTGDEVVNFFRQYRQAHPALTACMQVITDFGNPLLYLVYGAIFFRARKRGDRHDMRFVAVYIVVQLLVSFLAVRILKIGFGMPRPGTEGPAIPFSFKGVYNSFPSGHTTEIVGAVVPLAWRCKALLPTLALGIYMGIVGYSRIYLGMHHITDVFAGLLLGSVAAWIIHRLADRTPS”, the protein production result is listed as “failed”. In the case of “MVNQPLVSIIIPAYRAENTIAFTVRSVLAQTYDHWQVAIGVDDQVDYLQLLAEQGINDPRLKQVFTGGIGSGEAIARNKAVSICDGDILANLDADDAFASDRLEKLVPLAEKYGVAIDNTGVYNSELVLYKQPFPQRQALNFATAADILSPRIPFFPVFQRQLLGDGWTKVPFAADVLFNLELLSRTEKVAIHPEPLYRYYKRDNSITQSANAFETAEKAYLTILSLLDEGALTLTDAIRQAARQEFSENLALNKVFRRYMEEGRCQNLEQFLDMTNNGQKIEFVSNLNLEHHHHHH” it was “not failed”; in that of “MPFGLKSSQSIDDKFMSITQMKNLIHYVKKNDALSHLCIYILIITGSRFKPVQHLRYEDLNFKKSCIHLNDTKNKYSKRNVKVRIKDLEYIQSVINKHPINQNGYIFHNFINFISYSAINDVLVRFCLKYKYDKYTLKSLRHTHCSYLLAKGISIQYISKRLGHADIHTTLKIYSHLIKEFEDSENSLIEKNLNDLFSDLEHHHHHH”, “not failed”. In the case of “MSGYFEILAILTCAVFVVWLFRRLNLPAILAYLVAGMLVGQHGLNLVQDQVDYDHFAELGIVFLLFTLGLEFSLPRLMAMRHLVVSVGSLQVGISLLVFIIAGLFFGLSFSEAFVVGSILALSSTAIVIRQLSETGAMKRKSGQLSVAILLFQDVAVVPLLIIIPMLAMDSQSSMVWALMLAMVKGVVVVALLLLIGKWLLPKVFNIIAQVRTDELFVLTTLLVTLLAAAFTQWFGLSMALGAFLAGMMLSESEYKHQLEADIRPYRDILLGLFFITVGMKLDVSLLISSPFSLLGLMLCFMLVKIMVIKILAVKAGESSKDAWASGLMLAQMGEFGFVLIALANQSQILPLDVASMLLGAGVISMAITPFMINNARSWALFLSQEKSPESLDLSQLPENKVLENHVVICGFGRVGQTVSRFLKQDEIDFVAIDVDPLRTQKAREAGEKVLFGSSRQTEVLNAAHLSEAKLVVIAFGDDKQSLEVIQKVRSMNEKVPILVRTRNDDQLDALQAAGANEVVPESLEGSLMLVSQVLSLTGVPFSRIMRRVQRERKNHYNHLHGFFQGEHTDMSPQAIDRIEFAHAILINDNSFSCGKSIESLNLGKMRVNVVALRRGDIECESPGKDTVLQAQDTLIIRGKPRGVEKADHYVQEGK” it was “failed”.

For “MEDRIPVIKRFTGGGTVIVDKSTLFVSLICNKDDVPNVQPYPRSVMAWSGSLYDEVFKSVNGFQLRENDYVFGDRKFGGNAQSIIKNRWIHHTSFLWDYDVRNMAYLKLPSRVPQYRLERDHTDFVCRMKDYIERSDFVEKTVKAVRNQFTLKQVNLEDIDSYAKGGYLKTTRLLTMEELEEAMADTIQNT”, the protein production result is on record as “failed”.

Take “GSSGSSGMSNTTWGLQRDITPRLGARLVQEGNQLHYLADRASITGKFSDAECPKLDVVFPHFISQIESMLTTGELNPRHAQCVTLYHNGFTCEADTLGSCGYVYIAVYPTQR”: the protein production entry is on record as “not failed”.

The record behind these values is a protein production outcome set (Wang et al. 2014).
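Note: failed if final PepcDB status was selected cloned or expressed and not failed if soluble or beyond.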
